US20230212305A1 (published 2023)

T1: cynomolgus ABCG2 (Macaca fascicularis) (Macaca fascicularis (cynomolgus), UniProt Q5MB13 1-654 (rhesus entry))
T1 construct: also called cABCG2
T1 sequence: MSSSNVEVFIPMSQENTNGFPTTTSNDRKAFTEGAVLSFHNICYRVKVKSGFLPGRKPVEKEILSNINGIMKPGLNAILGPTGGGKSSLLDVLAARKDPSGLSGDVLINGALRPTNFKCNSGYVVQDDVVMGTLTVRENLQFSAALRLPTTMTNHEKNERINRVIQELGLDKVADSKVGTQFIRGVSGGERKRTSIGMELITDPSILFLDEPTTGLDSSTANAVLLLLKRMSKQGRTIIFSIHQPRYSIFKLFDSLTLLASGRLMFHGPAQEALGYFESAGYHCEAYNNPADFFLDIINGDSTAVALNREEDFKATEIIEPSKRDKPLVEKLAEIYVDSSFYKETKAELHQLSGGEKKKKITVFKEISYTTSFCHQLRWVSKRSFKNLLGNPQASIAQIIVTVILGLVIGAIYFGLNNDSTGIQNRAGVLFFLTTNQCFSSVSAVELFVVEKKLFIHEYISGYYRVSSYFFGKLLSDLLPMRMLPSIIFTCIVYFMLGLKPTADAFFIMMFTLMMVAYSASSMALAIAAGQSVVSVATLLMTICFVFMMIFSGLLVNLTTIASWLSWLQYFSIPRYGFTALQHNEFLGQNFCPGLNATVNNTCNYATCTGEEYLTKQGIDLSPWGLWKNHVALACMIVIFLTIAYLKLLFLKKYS

T2: human ABCG2 (human, UniProt Q9UNQ0 1-655)
T2 construct: also called hG2; KPG2
T2 sequence: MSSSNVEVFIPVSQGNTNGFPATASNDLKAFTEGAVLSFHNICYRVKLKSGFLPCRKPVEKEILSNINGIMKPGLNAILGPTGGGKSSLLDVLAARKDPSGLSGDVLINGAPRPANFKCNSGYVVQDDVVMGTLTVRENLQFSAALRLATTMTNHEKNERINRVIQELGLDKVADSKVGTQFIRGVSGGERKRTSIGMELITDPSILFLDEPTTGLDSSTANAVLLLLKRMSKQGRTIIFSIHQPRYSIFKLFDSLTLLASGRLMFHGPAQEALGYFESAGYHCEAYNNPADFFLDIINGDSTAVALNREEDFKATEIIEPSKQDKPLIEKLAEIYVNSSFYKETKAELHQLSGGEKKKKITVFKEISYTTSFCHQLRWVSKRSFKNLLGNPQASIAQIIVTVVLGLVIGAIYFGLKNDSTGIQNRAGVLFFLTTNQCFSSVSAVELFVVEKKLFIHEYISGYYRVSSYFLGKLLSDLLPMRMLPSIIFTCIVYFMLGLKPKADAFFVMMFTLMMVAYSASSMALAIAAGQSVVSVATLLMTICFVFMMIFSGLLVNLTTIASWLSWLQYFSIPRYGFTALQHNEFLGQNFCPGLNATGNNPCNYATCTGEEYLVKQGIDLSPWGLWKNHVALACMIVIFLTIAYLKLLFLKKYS


Legend:
[1] = target: T1, cynomolgus ABCG2 (Macaca fascicularis); assay: flow cytometry on cells expressing cynomolgus ABCG2
Procedure: (§1) Cell Binding Assays. Antibody binding to cells was evaluated by flow cytometry. […] After incubating cells on ice for 30 min, cells were washed twice with flow cytometry buffer. Bound antibody was detected with PE-labeled F(ab′)₂ fragment goat anti-human IgG (Jackson ImmunoResearch) and evaluated on an Attune NxT flow cytometer.

human ABCG2 = target: T2, human ABCG2; assay: flow cytometry titration on 293T_ABCG2_OX cells; column Affinity for human ABCG2 (nM)
Procedure: as §1

[2] = target: T1, cynomolgus ABCG2 (Macaca fascicularis); assay: flow cytometry on cells expressing cynomolgus ABCG2; paragraph 395: non-significant binding = -
Procedure: as §1

Binder | binding result [1] | Kd (human ABCG2) [nM] | binding result [2]
G2.302 mouse (antibody, human IgG1, V domains shown, Variable regions cloned onto human IgG1 constant heavy chain and human kappa constant light chain; also called G.302) VH: QIQLQQSGPELVRPGASVKISCKASGYTFTDYYINWVKQRPGQGLEWIGWIYPGNVNVKYNEKFKGKATLTVDTSSSTGYMQLRSLTSEDSAVYFCARSIGLRYFDNWGQGTTLTVSS VL: EKVLTQSPAIMSASLGEKVTMSCRASSSVHYMYWHQQKSDASPRLWIYYTSNLAPGVPARFSGSGSGNFYSLTISSVEDEDGATYYCQQFTTSTWTFGGGTKLEIK | binds | 25 | –
G2.257 mouse (antibody, human IgG1, V domains shown, Variable regions cloned onto human IgG1 constant heavy chain and human kappa constant light chain) VH: EVQLQQSGPELVKPGASLKISCKTFGYSFTGYYMHWVKQSPEKSLEWIGKIVPSTGGTTYNQKFKAKATLTVDKSSFTAYMQLKSLTTEDSAVYYCAREKVYGYDVYYFDYWGQGTTLTVSS VL: DIQMTQTPSSLSASLGDRVTITCSTSQGVRSYLNWYQQKPDGSVKLLIYYTSSLHSGVPSRFSGSGSGTDYSLTISNLEPEDIATYYCQQYSKLPYTFGGGTKLELK | binds | 7.9 | –
G2.302 Humanized (antibody, human IgG1, V domains shown) VH: EIQLVQSGAEVKKPGASVKVSCKASGYTFTDYYINWVRQAPGQRLEWIGWIYPGNVNVKYNEKFKGRATLTVDTSASTGYMELSSLRSEDTAVYFCARSIGLRYFDNWGQGTLVTVSS VL: EKVLTQSPATLSLSPGERATLSCRASSSVHYMYWHQQKPGQSPRLWIYYTSNLAPGVPARFSGSGSGNDYTLTISSLEPEDFAVYYCQQFTTSTWTFGGGTKLEIK | binds | 59 | –
G2.394 rat (antibody, human IgG1, V domains shown, Variable regions cloned onto human IgG1 constant heavy chain and human kappa constant light chain) VH: EVQLKESGPGLVQPSQTLSLTCTVSGFSLTDYTITWVRQPPGKGLEWIAATSVGGATHYNSPLKSRLSISGDTSKSQVFLKMNSLRTEDTAMYFCVRSGYYSTYMNWGRGTMVTVSS VL: DVVMTQTPPTFSATIGQSVSISCRSSQSLLHSSGNTFLSWLLQRPGQPPQLLIYLVSRLEFGVPNRFSGSGSGTDFTLKISGVEAEDLGVYYCVQSTHVMNTFGAGTKLEIK | binds | 88 | –
G2.343 rat (antibody, human IgG1, V domains shown, Variable regions cloned onto human IgG1 constant heavy chain and human kappa constant light chain) VH: SVQLKESGPGLVQPSQTLSLTCTVSGFSLTSNGVSWVRQPPGKGLEWIAAISSGGSTYYNSVLKSRLSISRDTSKSQVFLKMNSLQTEDTAIYFCTRDTYYGYNQIPFVYWGQGTLVTVSS VL: DVVLAQTPPTLSATIGQSVSISCRSSQSLLHSSGNTYLNWLLQRPGQPPQLLIYLVSRLESRVPNRFSGSGSGTDFTLKISGVEAEDLGVYYCVQSTHAPRTFGGGTKLELK | binds | 40 | –
G2.420 rat (antibody, human IgG1, V domains shown, Variable regions cloned onto human IgG1 constant heavy chain and human kappa constant light chain; also called G.420; KNJY-G2-420) VH: SVQLMESGPGLVQPSQTLSLTCTVSGFSLNSYNVNWVRQPPGKGLEWIAAISSGGSTYYNSVLKSRLSITRDTSKSQVFLKMNSLQTEDTAMYFCARSGYYSSYMNWGQGVMVTVSS VL: DVVMTQTPPTLSATIGQSVSISCRSSQSLLHSTGNTYLNWLLQRPGQPPQLLIYLVSRLEYGVPNRFSGSGSGTDFTLKISGVEAEDLGVYYCAQSTHALNTFGAGTKLELK | binds | 56 | –
G2.346 rat (antibody, human IgG1, V domains shown, Variable regions cloned onto human IgG1 constant heavy chain and human kappa constant light chain) VH: SVQWKESGPGLVQPSQTLSLTCTVSGFSLTSNGVSWVRQPPGKGLEWIAAISSGGSTYYNSGLKSRLSISRDTSKSQVFLKMNSLQTEDTAIYFCTRAGYYGYNPIWFTYWGQGTLVTVSS VL: DVVMTQTPPTLSATIGQSVSISCRSSQSLLHGSGNTYLNWLLQRPGQPPQILIYLVSRLESRVPKRFSGSGSGTDFTLKISGVEADDLGVYYCVQSTHAPFTFGSGTKLELK | binds | 168 | –
G2.173 mouse (antibody, human IgG1, V domains shown, Variable regions cloned onto human IgG1 constant heavy chain and human kappa constant light chain) VH: QVQLQQSGADLVRPGASVKLSCTASGFNIKDDYVHWVKQRPEQGLEWIGRIDPANGNTRYAPKFRGKATMTADTSSNTAYLQLSSLTSADTAVYYCSPPLWVGGFAYWGQGTLVTVSS VL: DVVMTQTPLSLPVSLGDQASISCRSSQSLVHSDVNTYLHWYLQRPGQSPKLLIYKVSNRFSGVPDRFSGSGSGTDFTLKISRVESEDLGIYFCSQTTHVPYTFGGGTKLEIK | – | 17 | no binding
G2.173 Humanized 1 (antibody, human IgG1, V domains shown) VH: EVQLVQSGAEVKKPGASVKVSCKASGFNIKDDYVHWVRQAPGQGLEWIGRIDPANGNTRYAPKFRGRATMTADTSISTAYMELSRLRSDDTAVYYCSPPLWVGGFAYWGQGTLVTVSS VL: DVVMTQSPLSLPVTLGQPASISCRSSQSLVHSDVNTYLHWYQQRPGQSPRLLIYKVSNRFSGVPDRFSGSGSGTDFTLKISRVEAEDVGVYFCSQTTHVPYTFGGGTKLEIK | – | 46 | no binding
G2.173 Humanized 2 (antibody, human IgG1, V domains shown) VH: EVQLVQSGAEVKKPGASVKVSCKASGFNIKDDYVHWVRQAPGQGLEWIGRIDPAQGNTRYAPKFRGRATMTADTSISTAYMELSRLRSDDTAVYYCSPPLWVGGFAYWGQGTLVTVSS VL: DVVMTQSPLSLPVTLGQPASISCRSSQSLVHSDVNTYLHWYQQRPGQSPRLLIYKVSNRFSGVPDRFSGSGSGTDFTLKISRVEAEDVGVYFCSQTTHVPYTFGGGTKLEIK | – | 273 | no binding
G2.173 Humanized 3 (antibody, human IgG1, V domains shown) VH: EVQLVQSGAEVKKPGASVKVSCKASGFNIKDDYVHWVRQAPGQGLEWIGRIDPASGNTRYAPKFRGRATMTADTSISTAYMELSRLRSDDTAVYYCSPPLWVGGFAYWGQGTLVTVSS VL: DVVMTQSPLSLPVTLGQPASISCRSSQSLVHSDVNTYLHWYQQRPGQSPRLLIYKVSNRFSGVPDRFSGSGSGTDFTLKISRVEAEDVGVYFCSQTTHVPYTFGGGTKLEIK | – | 44 | no binding
G2.630 rat (antibody, human IgG1, V domains shown, Variable regions cloned onto human IgG1 constant heavy chain and human kappa constant light chain) VH: EVQLVESGPGLVKPSQSLSLTCSVTGYTITSGYDWTWIRKFPGNKMEWMGYISYSGFTNYNPSLRSRISITRDTSKNQFFLQLNSVTTEDTATYYCTRTRGYNPFAYWGQGTLVTVSS VL: DVVMTQSPSLLSASVGDRVTLSCKAGRNINNYLAWYQQKLGKAPKLLIYNTNSLQTGIPSRFSGSGSGTDFTLTISSLQPEDVATYFCQQYNSWTTFGSGTKLEIK | binds | – | –
G2.320 rat (antibody, human IgG1, V domains shown, Variable regions cloned onto human IgG1 constant heavy chain and human kappa constant light chain) VH: EVQLEESGPGLVKPSQSLSLTCSVTGYTITSGYDWTWIRKFPGNKMEWMGYISYSGFTNYNPSLRSRISITRDTSKNQFFLQLNSVTTEDTATYYCTRTRGYNPFAYWGQGASVSSAS VL: DIVMTQSPSLLSASVGDRVTLSCKAGRNINNYLAWYQQKLGKAPKLLIYNTNSLQTGIPSRFSGSGSGTDFTLTISSLQPEDVATYFCQQYNSWTTFGSGTKLEIK | binds | – | –
G2.318 rat (antibody, human IgG1, V domains shown, Variable regions cloned onto human IgG1 constant heavy chain and human kappa constant light chain) VH: EVKLLESGPGLVKPSQSLSLTCSVTGYTITSGYDWSWIRKFPGNKMEWMGYISYSGWTNYNPSLRSRISISRDTSKNQFFLQLNSVTTEDTATYYCARVRGYNPFAYWGQGTLVTVSS VL: DIVMTQSPSLLSASVGDRVTLSCKAGQNINNYLAWYQQKLGEAPKLLIYNANSLQTGIPSRFSGSGSGTDFTLTISSLQPEDVATYFCQQYNSWTTFGSGTKLEIK | binds | – | –
G2.65 mouse (antibody, human IgG1, V domains shown, Variable regions cloned onto human IgG1 constant heavy chain and human kappa constant light chain; also called KNJY-G2-65) VH: QGQMHQSGAELVKPGASVKLSCKTSGFTFNSGYISWLKQKPRQSLEWIAWIYAGTGISNFNQKFTGKAQLTVDTSSSTAYMQLSSLTSADSAIYFCASGARKTLDFWGQGTSVTVSS VL: DIQMTQSSSYLSVSVGGRVTITCKASDQINYWLAWYQQKPGNAPRLLISGATSLETGVPSRFSGSGSGKDYTLSITSFQTEDVATYYCQQYWTTPYTFGGGTKVEIK | – | 179 | no binding
G2.348 rat (antibody, human IgG1, V domains shown, Variable regions cloned onto human IgG1 constant heavy chain and human kappa constant light chain) VH: EVQLVESGPGLMQPSQTLSLTCTVSGFSLTSNGVSWVRQPPGKGLEWIATISSGGNTNYNSALKSRLSISRDTSKSQVFLKMNSLQTEDTAIYFCTRVGYYGYNPIWFAYWGQGTLVTVSS VL: DVVMTQTPPTLSATIGHSVSISCRSSQSLFHSSGNTYLSWFLQRPGQPPQLLIYLVSRLESRVPNRFSGSGSGTDFTLKISVLEAEDLGVYYCVQTTHAPFTFGSGTKLEIK | binds | 80 | –
